Consider four molecules from PMC9735655, “Two Distinct Modes of DNA Binding by an MCM Helicase Enable DNA Translocation”.

Data set [1] concerns the target MCM protein of Saccharolobus solfataricus with the C-terminal helix-turn-helix domain removed and a modified linker between the N-terminal domain and the AAA+ ATPase domain (Saccharolobus solfataricus) (UniProt Q9UXG1). The data set is described as follows: cryo-EM structure; SsoMCM at 1 mg/mL mixed 5:1 by volume with 1 mM oligonucleotide (T12, T16 or T20-CTATAG-T20), 5 mM ADP-BeF3, magnesium; plunge-frozen; two structural classes, also refined from merged particles.

Data set [2] has as its target T1, SsoMCM (C-terminal HTH removed, modified interdomain linker; pEE078.1) (Saccharolobus solfataricus, UniProt Q9UXG1 1-265+=GGSGGS+275-612, internal_change).
T1 sequence: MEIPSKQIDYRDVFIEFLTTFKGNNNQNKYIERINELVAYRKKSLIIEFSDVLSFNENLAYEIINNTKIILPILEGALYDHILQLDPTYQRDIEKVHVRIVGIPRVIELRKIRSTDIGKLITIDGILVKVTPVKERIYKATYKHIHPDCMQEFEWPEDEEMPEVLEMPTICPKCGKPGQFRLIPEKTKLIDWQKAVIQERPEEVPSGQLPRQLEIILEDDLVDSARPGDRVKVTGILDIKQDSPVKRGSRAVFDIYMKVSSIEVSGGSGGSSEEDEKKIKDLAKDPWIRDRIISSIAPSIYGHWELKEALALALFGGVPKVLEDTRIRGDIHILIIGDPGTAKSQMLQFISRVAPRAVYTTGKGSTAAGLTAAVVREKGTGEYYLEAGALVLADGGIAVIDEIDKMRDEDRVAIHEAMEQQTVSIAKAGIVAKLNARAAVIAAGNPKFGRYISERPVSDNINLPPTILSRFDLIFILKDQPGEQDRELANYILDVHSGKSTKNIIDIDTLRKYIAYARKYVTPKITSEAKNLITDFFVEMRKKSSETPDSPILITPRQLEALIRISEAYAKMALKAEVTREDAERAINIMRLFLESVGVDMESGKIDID
Kind of data set: cryo-EM; Mg2+, ADP-BeF3; class 1 (six subunits on DNA); Cryo-EM sample: protein 1 mg/mL mixed 5:1 (v/v) with 1 mM oligonucleotide, 5 mM fresh ADP-BeF3, magnesium present; buffer, salt, pH and temperature not stated in the material. The following applies: protein: recombinant, tags: His6-SUMO removed with Ulp1, chain copies: 6.

Data set [3] has as its target T1, SsoMCM (C-terminal HTH removed, …). The data set is described as follows: cryo-EM; Mg2+, ADP-BeF3; class 1 (six subunits on DNA, 2.48 A); Cryo-EM sample: protein 1 mg/mL mixed 5:1 (v/v) with 1 mM oligonucleotide, 5 mM fresh ADP-BeF3, magnesium present; buffer, salt, pH and temperature not stated in the material. The following applies: protein: recombinant; tags: His6-SUMO removed with Ulp1; chain copies: 6; single strand.

“MCM protein of Saccharolobus solfataricus with the C-terminal helix-turn-helix domain removed and a modified linker between the N-terminal domain and the AAA+ ATPase domain (from UniProt Q9UXG1 1-686) (enzyme)”: the stoichiometry N – broadly, a count of units in the complex or per binding partner – in data set [1] was found to be 6.
As for TTTTTTTTTTTTTTTTTTTTCTATAGTTTTTTTTTTTTTTTTTTTT (ssDNA) [T20-CTATAG-T20], in data set [2] (central 6-nt palindrome, potential X-shape with 20-mer poly-dT arms), the binding result is on record as “binds”.
Turning to TTTTTTTTTTTTTTTT (ssDNA) [T16 (16-mer poly-dT)], the binding result in data set [3] is listed as “binds”.
For TTTTTTTTTTTT (ssDNA) [T12 (12-mer poly-dT)], the binding result in data set [2] (single strand) is listed as “binds”.
